Data on one substance can be found in publication PMC7455559.

This test has as its target connexin-50 (native, sheep lens) (sheep) (UniProt P55917). Nature of the test: cryo-EM structure; native Cx46/50 intercellular channels from sheep lens in a pair of MSP1E1/DMPC nanodiscs; 20 mM HEPES pH 7.4, 150 mM NaCl; single-particle reconstruction with D6 symmetry, 1.90 Å (2.3 Å without symmetry); the two isoforms could not be told apart by image classification.

“connexin-46 (native, sheep lens) (from UniProt Q9TU17 1-413) (natural protein)” showed a subunits in the intercellular channel (Cx46 and Cx50 together) of 12.
